In PMC12728192, “The dynamic lateral gate of the mitochondrial β-barrel biogenesis machinery is blocked by darobactin A” (Nature Communications, 2025):
Where “and” joins values, the source holds several entries; their conditions need not be identical. Equal entries are not always repeated. Where two headings read alike, the source gives them in different places.

How the values were obtained:
[1] = biological target: Thermothelomyces thermophilus SAM complex (sorting and assembly machinery complex; Sam50:Sam35:Sam37, monomer) (Thermothelomyces thermophilus); experiment: MST; SAM complex labelled with Monolith RED-tris-NTA 2nd Generation, constant at 25 nM; serial dilution of peptide; size exclusion buffer (20 mM HEPES pH 8.0, 150 mM NaCl, 0.02% GDN); Monolith NT.115, premium capillaries
[2] = biological target: Thermothelomyces thermophilus SAM complex (10xHis-TEV-Sam50, Sam35 (no tag), TwinStrep-TEV-GG-Sam37) (Thermothelomyces thermophilus); experiment: MST; SAM complex labelled with Monolith RED-tris-NTA 2nd Generation, constant at 25 nM; serial dilution of peptide; size-exclusion buffer (20 mM HEPES pH 8.0, 150 mM NaCl, 0.02% GDN); Monolith NT.115, premium capillaries; MO.Affinity Analysis; one Kd for each biological replicate from 2-3 technical replicates

Kd [1] | Kd ([2]; mean of biological replicates) [µM] | Kd [2] [µM] | Substance
0.296 µM and 0.0956 to 0.377 µM | 0.228 |  | darobactin A (peptide)
490 to 1200 µM |  | > 1170 | linear darobactin (peptide)
